Article PMC11348266

Target: GRA4 (UniProt Q27002)
Assay: exogenous co-IP
Conditions: reference: wild type TBK1; sites S172

TBK1 (from UniProt Q9UHD2) TBK1 S172A
binding against the reference: weaker
